The text below walks through data of patent US20220073631A1 (QYUNS THERAPEUTICS, published 2022).

For experiment [1], the target named is T1, hIL-4Rα-ECD (wild-type hIL-4Rα extracellular domain with C-terminus his-tag) (human, UniProt P24394 26-232).
T1 construct: Made in HEK 293F cells and purified on nickel; not shown: C-terminal his-tag
The experiment can be described thus: SPR, Biacore T200, by the methods of Example 2; mean of three experiments. The procedure:
(§1) The protein A was chemically coupled to a CM5 chip, and an appropriate amount of the antibody was immobilized by a capture method such that the Rmax was less than 50 RU and the flow rate for the capture was 10 μl/min. The antigen was subject to gradient dilution, and the flow rate in the instrument was switched to 30 μl/min. The antigen was flowed through the reference channel and the channel with the immobilized antibody sequentially in an ascending order of concentration, and the running buffer was flowed through as a negative control. After each binding and dissociation was complete, the chip was regenerated with glycine, pH 1.5. Fitting was performed with the build-in software in the instrument according to a 1:1 binding model. The binding rate constant kₐ, the dissociation rate constant kd, and the equilibrium dissociation constant KD values of the antibody were calculated. Dupilumab was obtained by purchasing a commercially available medicine.
(§2) To further narrow down the key amino acids that PD2-31 binds to, multiple mutants of hIL-4Rα were designed in Loop 2 (V40FLLSEA46) and Loop 3 (M65[…]73) (Table 2). The wild-type hIL-4Rα (hIL-4Rα-ECD) and hIL-4Rα mutants were prepared using standard techniques. Briefly, the expression plasmids containing the extracellular domain of wild-type hIL-4Rα and different mutated hIL-4Rα were constructed and transfected into HEK 293F cells. After expression, the extracellular domain of wild-type hIL-4Rα and hIL-4Rα mutants with C-terminus his-tag were purified by Nickel chromatography. Purified proteins of wild-type hIL-4Rα and hIL-4Rα mutants were analyzed for interaction with PD2-31 and Dupilumab. The interaction was studied by Biacore T200, according to the methods in Example 2.

The target of experiment [2] is T2, extracellular domain of marmoset IL-4Rα (Gly 24-His 232) with C-terminus his-tag (marmoset).
T2 construct: range 24-232; Made in HEK 293F cells and purified on nickel
Nature of the experiment: SPR, Biacore T200, by the methods of Example 2. (Surface plasmon resonance follows binding to a sensor surface in real time, without labels.)

For experiment [3], the target named is IL-4Rα on human cells (HEK Blue IL-4/IL-13, A549, TF-1, HFL-1, PBMCs) (human, UniProt P24394 26-825). Nature of the experiment: cell-based or functional assay.
In the next experiment the target is T3, hIL-4Rα-Mu244 (human, UniProt P24394 26-232).
T3 construct: Printed positions fit the mature protein; also called S70Q/A71L/D72R; not shown: C-terminal his-tag
T3 chain: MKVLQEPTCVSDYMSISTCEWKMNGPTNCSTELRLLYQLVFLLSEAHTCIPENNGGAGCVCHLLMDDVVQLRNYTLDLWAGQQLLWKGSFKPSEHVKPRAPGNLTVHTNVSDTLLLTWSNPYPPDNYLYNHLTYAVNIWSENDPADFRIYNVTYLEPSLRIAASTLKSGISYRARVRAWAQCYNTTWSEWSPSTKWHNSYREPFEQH
Nature of the experiment: SPR, Biacore T200, by the methods of Example 2. The procedure: as §1, §2

Experiment [4] has as its target T4, human IL-4Rα (Shanghai Novoprotein Technology Co., Ltd) (human, UniProt P24394 26-232).
T4 construct: Bought protein; also called hIL-4Rα; human interleukin-4 receptor alpha
Nature of the experiment: SPR, Biacore T200, antibody captured on protein A, antigen as analyte, 25 C, 1:1 model. Here is the method:
as §1

B1: QX005N (PD2-31) (antibody, V domains shown)
VH: EVQLVESGGGLVQPGGSLRLSCAASGIDLRTNSMSWVRQAPGKGLEWVGIIGSSGYMDYASWAKGRFTISRDNSKNTLYLQMNSLRAEDTAVYYCARHGDSSSFALWGQGTLVTVSS
VL: DIQMTQSPSSLSASVGDRVTITCRASESVYKNNRLSWYQQKPGKAPKLLIYEASKVASGVPSRFSGSGSGTDFTLTISSLQPEDFATYYCAGAYRGNIYPFGQGTKVEIK
notes: Humanized from rabbit clone #2, expressed as a full antibody in ExpiCHO-S cells (heavy chain 48.5 kDa, light chain 23.7 kDa)
One may read the Kd as the equilibrium constant for the complex coming apart. What is called koff is a measure of how fast the partners let go of each other. What is called kon is the rate constant with which the complex forms. A low value points to slower complex formation. As to B1, in experiment [1], the affinity, expressed as Kd, was 0.169 nM; the off-rate (koff) was 0.000134 s⁻¹; the kon stood at 779000 M⁻¹ s⁻¹. In experiment [2], this molecule came in with a Kd of roughly 0.1 nM. In experiment [3], the “IC50, IL-4-induced CCL-11 release activity in HFL-1 cells (FIG. 7(A))” value stood at 0.0431 µg/mL; the “IC50, IL-4-induced CCL-17 release activity in A549 cells (FIG. 5(A))” value came out at 0.0326 µg/mL; the “IC50, IL-4-induced CCL-17 release activity in PBMCs (FIG. 9(A))” value is 0.0248 µg/mL; the “IC50, IL-4-induced STAT6 phosphorylation activity in HEK Blue IL-4/IL-13 cells (FIG. 4(A))” value came out at 0.00319 µg/mL. For the same molecule, in experiment [3], the “IC50, IL-4-induced proliferation activity of TF-1 cells (FIG. 6(A))” value is 0.0139 µg/mL; the “IC50, IL-13-induced CCL-11 release activity in HFL-1 cells (FIG. 7(C))” value was found to be 0.0385 µg/mL; the “IC50, IL-13-induced CCL-17 release activity in A549 cells (FIG. 5(C))” value turned out to be 0.0289 µg/mL; the “IC50, IL-13-induced CCL-17 release activity in PBMCs (FIG. 9(C))” value came to 0.0686 µg/mL. Moreover, in experiment [3], the “IC50, IL-13-induced STAT6 phosphorylation activity in HEK Blue IL-4/IL-13 cells (FIG. 4(C))” value is 0.00878 µg/mL and the “IC50, IL-13-induced proliferation activity of TF-1 cells (FIG. 6(C))” value was determined as 0.0155 µg/mL. For the same molecule, in the experiment with hIL-4Rα-Mu244, binding was characterised by a dissociation constant (Kd) of 1.1 nM, the off-rate constant (koff) was found to be 0.000104 s⁻¹ and the on-rate (kon) turned out to be 94500 M⁻¹ s⁻¹. For the same molecule, in experiment [4], the equilibrium dissociation constant (Kd) was determined as 0.378 nM, the dissociation rate constant (koff) stood at 0.000236 s⁻¹ and the kon came out at 612000 M⁻¹ s⁻¹.
